Ubiquitination of 60S versus 80S nascent chain complexes, separated on a sucrose gradient and given purified Listerin, E1, E2, ubiquitin and ATP (Figure S4E) data for one substance are collected here from publication PMC4175178.

The target of this assay is 60S ribosomal subunit-nascent chain complex made from F-VHP-β RNCs (not stated | rabbit (endogenous in reticulocyte lysate, RRL)) (UniProt G1TSG1).

Consider “FLAG-tagged human Listerin (from UniProt O94822 1-1766) (enzyme)”, for which the ubiquitination of 60S versus 80S nascent chain complexes, separated on a sucrose gradient and given purified Listerin, E1, E2, ubiquitin and ATP (Figure S4E) amounted to 10 fold.
